Measured values published in US7829301B2, “Screening assays for binding antagonists of the AMD-associated variant of factor H (H384)” (The University of Manchester, priority 2006, dated 2010).

Tests used:
[1] = Heparin affinity chromatography on HiTrap Heparin column; format: binding; conditions: pH 7.3; linear salt gradient 130 mM to 1 M NaCl
Protocol: The heparin-binding properties of H384 and Y384 variants of FHCCP6-8 were compared to full-length human factor H by affinity chromatography on a HiTrap Heparin column (Amersham Biosciences) or a ‘home-made’ column in which 20 mg 4IS was coupled to 1.5-ml CNBr-activated Sepharose (Sigma) in 0.1 M NaHCO3, 0.5 M NaCl, pH 8.3 using the manufacturer's protocol. The 1-ml HiTrap column and ˜1-ml 4IS-column were equilibrated in 20 mM HEPES, 130 mM NaCl, 1 mM EDTA, pH 7.3. Protein (200 μg recombinant proteins; 100 μg full-length factor H) was loaded onto the columns (in 1 ml equilibration buffer) and any unbound material was removed with 5 column volumes of the same buffer and collected in 1-ml fractions. Protein was eluted from the columns using a linear salt gradient of 130 mM to 1 M NaCl over 20 min by mixing 20 mM HEPES, 1 M NaCl, 1 mM EDTA, pH 7.3 with the equilibration buffer at a flow rate of 1 ml/min.
This approach was also used to determine the relative heparin-binding activities of K370A, R386A and K387A mutants, where 200 μg of protein was loaded individually onto the HiTrap column.

[2] = Microtitre plate assay: biotinylated proteins binding to immobilized heparin oligosaccharides of defined length
Description: FIG. 10: Comparisons of the interactions of FHCCP6-8(H384) and the corresponding Y384 variant with heparin oligomers of different lengths. The binding of biotinylated-FHCCP6-8(H384) (black bars) or biotinylated-FHCCP6-8(Y384) (grey bars) to heparin oligosaccharides (dp4 to dp18) immobilized on microtitre plates plasma polymerized with allylamine. All values are plotted as mean absorbance values (n=8)±S.E.
The heparin/HS/DS-binding activities of the FHCCP6-8(H384) and FHCCP6-8(Y384) variants (using biotinylated-FHCCP6-8 constructs), and in some cases full-length Factor H (detected with an antibody), were compared using an assay where the glycosaminoglycans (GAGs) were immobilized on allylamine-coated EpranEx plates (Mahoney et al (2004) Anal. Biochem. 330, 123-129), kindly supplied by Plasso Technology Ltd., Sheffield, UK. Previously, we have shown that heparin/HS can bind non-covalently to surfaces plasma polymerized with allylamine in such a way that these GAGs can still associate with a wide-range of proteins (Mahoney et al. (2005) J. Biol. Chem. 280, 27044-27055; Mahoney et al. (2004) ibid).
In the case of the biotinylated FHCCP6-8(H384) and FHCCP6-8(Y384) constructs, bound material was detected by adding 200 μl/well of a 1:10,000 dilution of ExtrAvidin alkaline phosphatase (Sigma, Cat. No. E-2636) for 30 minutes. […]

[3] = molecular target: T1, CRP (Homo sapiens, UniProt P02741); assay: Protein/protein binding assay with coated CRP
T1 construct: purchased Calbiochem
T1 sequence (P02741 19-224): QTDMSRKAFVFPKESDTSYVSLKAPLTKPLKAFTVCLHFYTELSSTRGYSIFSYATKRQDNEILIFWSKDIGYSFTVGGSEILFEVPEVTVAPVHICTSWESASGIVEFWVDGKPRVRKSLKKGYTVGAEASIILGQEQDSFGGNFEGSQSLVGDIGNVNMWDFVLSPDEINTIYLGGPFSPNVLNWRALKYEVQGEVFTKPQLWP
Protocol: FMOD was isolated from bovine articular cartilage (Heinghrd et al., (1986) J. Biol. Chem. 261, 13866-13872) and recombinant CRP was obtained from Calbiochem. Deglycosylated FMOD was prepared by treatment with N-glycosiadase F (Roche Applied Science) as previously described (Sjöberg et al. (2005) J. Biol. Chem. 280, 32301-32308).
CRP or FMOD was coated overnight at 4° C. onto microtiter plates (Maxisorp, Nunc) at a concentration of 10 μg/ml in 75 mM sodium carbonate buffer, pH 9.6. Wells treated only with coating buffer or 1% (w/v) BSA (Sigma) in coating buffer (for the assays involving FMOD) were used as negative controls. Between each step the wells were washed extensively with 50 mM Tris-HCl, 150 mM NaCl, 0.1% (v/v) Tween 20, pH 7.5. All wells were blocked with 1% (w/v) BSA (Sigma) in phosphate buffered saline (Invitrogen) for 1 hour at 37° C. […] The amount of bound protein was assessed using a goat polyclonal anti-FH antibody (Quidel, Cat # A312) followed by HRP-labeled anti-goat secondary antibodies (Dako) and the OPD development kit (Dako). Detection of biotinylated protein was performed using a StreptABComplex/HRP-kit from Dako, and in both cases the absorbance at 490 nm was measured to quantify protein binding.

[4] = tested on: Linearized pcDNA3-vector; assay: Protein/DNA binding assay (agarose gel migration); conditions: 5 μg protein, 30 ng DNA, 30 minutes at 37° C.
Protocol: Plasmid pcDNA3 DNA (Invitrogen) was linearized using EcoR1 (Fermentas) in a buffer accompanying the enzyme.
Linearized pcDNA3-vector (30 ng) was incubated with 5 μg of FHCCP(H384), FHCCP6-8(Y384) or full length FH (positive control) in the binding buffer (as described above) in a total volume of 20 μl for 30 minutes at 37° C. The negative control contained no protein. DNA loading buffer (0.25% (w/v) bromophenol blue, 0.25% (w/v) xylene cyanol, 30% (v/v) glycerol in deionized water) was added (1 μl) and the samples were run on an agarose gel (0.8% (w/v), Cambrex) containing ethidium bromide (Sigma) and visualized by UV. Changes in DNA migration served as a means of evaluating the presence of DNA-protein complexes.

B1: FHCCP6-8(H384): recombinant protein of Factor H CCPs 6-8, H384 allotype, with N-terminal non-authentic glycine (SEQ ID NO: 1) (protein, listed as Homo sapiens)
chain: MGTLKPCDYPDIKHGGLYHENMRRPYFPVAVGKYYSYYCDEHFETPSGSYWDHIHCTQDGWSPAVPCLRKCYFPYLENGYNQNHGRKFVQGKSIDVACHPGYALPKAQTTVTCMENGWSPTPRCIRVKTCSKSSIDIENGFISESQYTYALKEKAKYQCKLGYVTADGETSGSITCGKDGWSAQPTCI
modifications: VARIANT (1)...(188) Protein sequence of the FHCCP6-8 (H384) construct
- NaCl concentration at elution from HiTrap heparin affinity column [1]: 340 mM NaCl
- binding to heparin oligosaccharides relative to the other variant ([2]; 4- to 18-mers): bound better
- binding to CRP relative to the other variant ([3]; biotinylated proteins): lower CRP binding
- DNA-protein complex formation (DNA migration in agarose gel) [4]: retained DNA in its protein-complex form more efficiently

B2: FHCCP6-8(Y384): recombinant Factor H CCPs 6-8, Y384 variant obtained by site-directed mutagenesis (SEQ ID NO: 3) (protein, listed as Homo sapiens)
chain: MGTLKPCDYPDIKHGGLYHENMRRPYFPVAVGKYYSYYCDEHFETPSGSYWDHIHCTQDGWSPAVPCLRKCYFPYLENGYNQNYGRKFVQGKSIDVACHPGYALPKAQTTVTCMENGWSPTPRCIRVKTCSKSSIDIENGFISESQYTYALKEKAKYQCKLGYVTADGETSGSITCGKDGWSAQPTCI
modifications: VARIANT (1)...(188) FHCCP6-8 (Y384 allotype of mature Factor H)
- NaCl concentration at elution from HiTrap heparin affinity column [1]: 390 mM NaCl
- oligosaccharide length giving maximal binding [2]: ~12 sugars
- binding to CRP relative to the other variant ([3]; detection with polyclonal anti-FH antibody, p<0.03): bound significantly better
- DNA-protein complex formation (DNA migration in agarose gel) [4]: migrated mainly in the non-complexed form
